The text below walks through data of paper PMC3645317.

For the assay, the target named is gHΔTM-Fc/gL (Kaposi's sarcoma-associated herpesvirus (KSHV)).

solEphA2-Fc, sequence (P29317 25-534): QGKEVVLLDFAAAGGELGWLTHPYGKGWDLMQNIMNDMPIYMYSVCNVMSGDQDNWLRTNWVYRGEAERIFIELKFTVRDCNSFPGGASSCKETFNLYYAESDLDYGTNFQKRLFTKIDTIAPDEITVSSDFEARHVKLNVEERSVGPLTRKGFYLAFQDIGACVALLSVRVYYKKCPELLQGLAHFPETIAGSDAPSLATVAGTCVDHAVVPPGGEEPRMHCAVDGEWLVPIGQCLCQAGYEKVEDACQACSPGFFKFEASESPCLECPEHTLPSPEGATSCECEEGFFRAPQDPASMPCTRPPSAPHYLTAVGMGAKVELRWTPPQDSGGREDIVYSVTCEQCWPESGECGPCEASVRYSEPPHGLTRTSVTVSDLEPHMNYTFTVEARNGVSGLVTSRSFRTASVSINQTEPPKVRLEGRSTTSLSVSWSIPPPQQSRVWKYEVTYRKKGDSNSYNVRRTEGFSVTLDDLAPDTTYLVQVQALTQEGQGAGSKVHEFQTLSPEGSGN

Substance “solEphA2-Fc (from UniProt P29317-1 25-534) (Fc fusion)” showed an inhibition of KSHV infection of 293T cells by solEphA2-Fc at 2 µg/ml of 80%.
